Experimental data taken from paper PMC10144703, “Molecular Mechanism of Sirtuin 1 Inhibition by Human Immunodeficiency Virus 1 Tat Protein” (Life, 2023).

Experiments:
[1] = test system: mini-Sirt1-∆ESA (aa 183–505); test: Inhibition of mini-Sirt1-∆ESA (ac-p53 substrate); assay type: biochemical, human; details: dose-dependent, 100 µM ac-p53, n = 3; relative to mini-Sirt1
Source text: (§1) A human mini-Sirt1 construct (aa 183-505-(GGGS)2-641-665), as described in [27], was generated in a modified pET-19b with a TEV cleavage site. This construct and human full-length Sirt1 (fl-Sirt1) in pET-15b, Sirt1-(183-664) and Sirt1-(214-664) in pET-15b, mini-Sirt1-∆SBD (aa 214-505-(GGGS)2-641-665) and mini-Sirt1-∆ESA (aa 183–505) in a modified pET-19b with TEV cleavage site, Sirt2-(43-356) in a modified pET-19b with a His6-Sumo tag, Sirt3-(93-399) in a modified pET-32a with Trx-His6 tag and TEV cleavage site, hSirt3-(118-399) in pVFT3S (Sungkyunkwan University, Seoul, Republic of Korea) with His6-Trx tag and TEV cleavage site, Sirt5-(34-302) in pET-151/D-TOPO, and Sirt6-(1-355) in pQE80L.1 were purified as described. […]
(§2) Continuous coupled enzymatic sirtuin activity assays were conducted as described. […] Reactions were monitored for 1 h at room temperature by absorption spectroscopy at 340 nm in a UV/vis plate reader (BioTek). The slope for the linear range (typically 5–25 min) was evaluated after background correction with measurements without NAD^+. Additional control reactions were run by either omitting enzyme or omitting peptide substrate to ensure that the signal measured reflects the NAD+-dependent deacetylation activity of the sirtuin.

Sirt3-(93-399) = target: T1, Sirt3-(93-399) (Homo sapiens, UniProt Q9NTG7); test: FdL assay, Sirt3; assay type: biochemical; details: increasing Tat-Cys^−, n = 3-6
T1 construct: Sirt3-(93-399) in a modified pET-32a; Trx-His6 (cleaved yes); made in house; host or cells: E. coli CodonPlus(DE3)
T1 sequence (Q9NTG7 93-399): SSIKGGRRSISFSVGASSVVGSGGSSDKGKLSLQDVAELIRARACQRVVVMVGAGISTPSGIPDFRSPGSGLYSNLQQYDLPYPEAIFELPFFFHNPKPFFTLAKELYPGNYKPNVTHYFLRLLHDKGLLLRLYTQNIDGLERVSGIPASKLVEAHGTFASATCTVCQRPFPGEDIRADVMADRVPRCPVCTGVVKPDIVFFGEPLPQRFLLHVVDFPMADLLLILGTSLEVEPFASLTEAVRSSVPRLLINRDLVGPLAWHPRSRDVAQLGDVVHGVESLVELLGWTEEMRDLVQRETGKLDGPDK
Source text: A human mini-Sirt1 construct (aa 183-505-(GGGS)2-641-665), as described in [27], was generated in a modified pET-19b with a TEV cleavage site. This construct and human full-length Sirt1 (fl-Sirt1) in pET-15b, Sirt1-(183-664) and Sirt1-(214-664) in pET-15b, mini-Sirt1-∆SBD (aa 214-505-(GGGS)2-641-665) and mini-Sirt1-∆ESA (aa 183–505) in a modified pET-19b with TEV cleavage site, Sirt2-(43-356) in a modified pET-19b with a His6-Sumo tag, Sirt3-(93-399) in a modified pET-32a with Trx-His6 tag and TEV cleavage site, hSirt3-(118-399) in pVFT3S (Sungkyunkwan University, Seoul, Republic of Korea) with His6-Trx tag and TEV cleavage site, Sirt5-(34-302) in pET-151/D-TOPO, and Sirt6-(1-355) in pQE80L.1 were purified as described. Shortly, proteins were expressed at 20 °C (mini-Sirt1 constructs at 16 °C) in E. coli CodonPlus(DE3), cell lysates were cleared by centrifugation, and proteins were purified via affinity chromatography using a nickel NTA column. After digestion with thrombin or TEV protease, proteins were re-run over the nickel NTA column, pooled, and concentrated. The samples were, then, subjected either directly to size exclusion chromatography in 50 mM Tris/HCl, pH 8.0, 150 mM NaCl, 1 mM TCEP, or to an ion exchange chromatography followed by size exclusion chromatography. […]

human Sirt2 = target: T2, human Sirt2 (Homo sapiens, UniProt Q8IXJ6); test: Continuous coupled enzymatic assay, Sirt2; assay type: biochemical; details: 65 μM Tat-Cys^−, acetylated peptide at substrate Km, n = 3
T2 construct: Sirt2-(43-356) in a modified pET-19b; His6-Sumo; made in house; host or cells: E. coli CodonPlus(DE3)
T2 sequence (Q8IXJ6 43-356): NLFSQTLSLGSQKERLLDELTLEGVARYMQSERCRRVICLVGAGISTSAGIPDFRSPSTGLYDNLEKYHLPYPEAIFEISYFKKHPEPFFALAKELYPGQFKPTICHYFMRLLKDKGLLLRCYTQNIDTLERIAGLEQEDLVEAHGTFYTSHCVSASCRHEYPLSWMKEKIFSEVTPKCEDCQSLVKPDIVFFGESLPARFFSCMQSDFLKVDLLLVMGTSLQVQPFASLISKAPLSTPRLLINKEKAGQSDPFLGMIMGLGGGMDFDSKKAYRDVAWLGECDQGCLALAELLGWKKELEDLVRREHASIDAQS
Source text: as §1, §2

human Sirt3 = target: T3, human Sirt3 (Homo sapiens, UniProt Q9NTG7); test: Continuous coupled enzymatic assay, Sirt3; assay type: biochemical; details: 65 μM Tat-Cys^−, acetylated peptide at substrate Km, n = 3
T3 construct: Sirt3-(93-399) in a modified pET-32a; Trx-His6 (cleaved yes); made in house; host or cells: E. coli CodonPlus(DE3)
T3 sequence (Q9NTG7 93-399): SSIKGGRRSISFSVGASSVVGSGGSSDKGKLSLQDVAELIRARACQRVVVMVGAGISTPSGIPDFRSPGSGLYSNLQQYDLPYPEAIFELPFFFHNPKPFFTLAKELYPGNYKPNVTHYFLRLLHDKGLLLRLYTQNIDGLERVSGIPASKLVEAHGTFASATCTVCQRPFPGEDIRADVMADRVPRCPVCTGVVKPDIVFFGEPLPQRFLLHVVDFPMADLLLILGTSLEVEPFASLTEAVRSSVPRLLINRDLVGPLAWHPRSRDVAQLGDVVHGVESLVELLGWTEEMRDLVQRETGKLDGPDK
Source text: as §1, §2

human Sirt5 = target: T4, human Sirt5 (Homo sapiens, UniProt Q9NXA8); test: Continuous coupled enzymatic assay, Sirt5; assay type: biochemical; details: 65 μM Tat-Cys^−, succinylated peptide at substrate Km, n = 3
T4 construct: Sirt5-(34-302) in pET-151/D-TOPO; made in house; host or cells: E. coli CodonPlus(DE3)
T4 sequence (Q9NXA8 34-302): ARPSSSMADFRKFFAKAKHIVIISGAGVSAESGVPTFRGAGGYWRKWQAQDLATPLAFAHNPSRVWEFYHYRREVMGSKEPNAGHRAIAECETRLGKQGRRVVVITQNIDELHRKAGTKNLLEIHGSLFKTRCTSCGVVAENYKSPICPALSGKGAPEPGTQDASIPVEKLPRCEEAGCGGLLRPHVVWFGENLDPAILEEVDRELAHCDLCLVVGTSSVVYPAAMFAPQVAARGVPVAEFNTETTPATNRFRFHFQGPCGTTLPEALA
Source text: as §1, §2

human Sirt6 = target: T5, human Sirt6 (Homo sapiens, UniProt Q8N6T7); test: Continuous coupled enzymatic assay, Sirt6; assay type: biochemical; details: 65 μM Tat-Cys^−, myristoylated peptide at substrate Km, n = 3
T5 construct: Sirt6-(1-355) in pQE80L.1; made in house; host or cells: E. coli CodonPlus(DE3)
Source text: as §1, §2

T5 sequence (Q8N6T7 whole entry): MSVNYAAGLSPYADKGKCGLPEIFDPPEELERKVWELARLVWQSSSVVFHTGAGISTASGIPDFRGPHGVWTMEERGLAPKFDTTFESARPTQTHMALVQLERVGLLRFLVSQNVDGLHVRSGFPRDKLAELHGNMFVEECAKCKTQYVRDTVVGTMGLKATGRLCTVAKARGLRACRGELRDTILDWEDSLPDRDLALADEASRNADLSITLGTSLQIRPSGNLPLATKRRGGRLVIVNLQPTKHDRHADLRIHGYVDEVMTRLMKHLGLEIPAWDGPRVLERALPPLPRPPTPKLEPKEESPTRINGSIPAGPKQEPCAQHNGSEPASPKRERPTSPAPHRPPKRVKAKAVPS

B1: Tat-Cys^−: Recombinant 86-residue HIV1 Zaire 2 Tat with C22S, C25A, C27A, C30S, C31A, C34S, and C37A (protein)
chain: MDPVDPNIEPWNHPGSQPKTASNRAHAKKSAYHSQVAFITKGLGISYGRKKRRQRRRPSQGGQTHQDPIPKQPSSQPRGDPTGPKE
[1]
  inhibitory effects, mini-Sirt1-∆ESA: unchanged inhibitory effects
Sirt3-(93-399); FdL-1, Sirt3-(93-399)
  inhibition mode vs acetylated substrate peptide, Sirt3: competitive with the acetylated substrate peptide
Sirt3-(93-399); NAD^+ titration, Sirt3-(93-399)
  inhibition mode vs NAD^+, Sirt3: non-competitive with NAD^+
Human Sirt2
  inhibitory effect on Sirt2, continuous assay: pronounced inhibitory effects
Human Sirt3
  inhibitory effect on Sirt3, continuous assay: pronounced inhibitory effects
Human Sirt5
  inhibitory effect on Sirt5, continuous assay: no statistically significant effect was observed
Human Sirt6
  inhibitory effect on Sirt6, continuous assay: no statistically significant effect was observed
